Assay results published in patent publication US20120020961A1 (INSTITUT NATIONAL DE LA SANTE ET DE LA RECHERCHE MEDICALE …, published 2012).
Values joined by “and” are separate entries in the source; they are usually repeats but may differ in a detail not shown here. Equal entries are not always repeated.

T1: mature human progastrin (human, UniProt P01350 22-101)
T1 construct: In the spheroid assays the progastrin is made by the human liver cancer cells themselves; also called hPG; PG
T1 sequence: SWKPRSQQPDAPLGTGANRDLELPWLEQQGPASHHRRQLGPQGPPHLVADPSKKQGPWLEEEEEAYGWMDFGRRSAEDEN

B1: murine anti-hPG MAb8 (antibody, V domains shown)
VH: EVQLVESGGGLVKPGGSLKLSCAASGFTFTTYAMSWVRQTPEKRLEWVATISSGGTYTYYPDSVKGRFTISRDNAKNALYLQMSSLRSEDTAMYYCATQGNYSLDFWGQGTSLTVSS
VL: DIVMTQAASSNPVTLGTSASISCRSSKSLRHTKGITFLYWYLQKPGQSPQLLIYQMSNLASGVPDRFSSSGSGTDFTLRISRVEAEDLGVYYCAQNLELPLTFGAGTKLELK
notes: Murine C-terminal anti-hPG monoclonal antibody, immunogen C1; also called hybridoma 1C10D3B9
B2: murine anti-hPG MAb3 (antibody, V domains shown)
VH: EVQLQQSGTVLARPGASVKMSCKASGYIFTSYWVHWVKQRPGQGLEWIGGFYPGNSDSRYNQKFKGKATLTAVTSASTAYMDLSSLTNEDSAVYFCTRRDSPQYWGQGTTLTVSS
VL: DVLMTQTPLSLPVSLGDQASISCRSSQSIVHSNGNTYLEWYLQKPGQSPKLLIYKVSNRFSGVPDRFSGSGSGTDFTLKISRLEAEDLGVYYCFQGSHVPFTFGGGTKLEIK
notes: Murine N-terminal anti-hPG monoclonal antibody, immunogen N2; also called hybridoma 6B5B11C10
B3: murine anti-hPG MAb13 (antibody, V domains shown)
VH: EVQLVESGGGLVQPGGSLKLSCAASGFIFSSYGMSWVRQSPDRRLELVASINTFGDRTYYPDSVKGRFTISRDNAKNTLYLQMTSLKSEDTAIYYCARGTGTYWGQGTTLTVSS
VL: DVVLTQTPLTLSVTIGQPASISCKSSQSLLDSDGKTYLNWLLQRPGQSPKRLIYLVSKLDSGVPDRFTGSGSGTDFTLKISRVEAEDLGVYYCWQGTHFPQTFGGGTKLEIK
notes: Murine C-terminal anti-hPG monoclonal antibody, immunogen C1; also called hybridoma 2C6C3C7
B4: murine anti-hPG MAb19 (antibody, V domains shown)
VH: DVQLQESGPGLVKPSQSLSLTCTVTGYSITSDYAWNWIRQFPGNKLEWMGYISFSGYTSYNPSLKSRISVTRDTSRNQFFLQLTSVTTEDTATYYCAREVNYGDSYHFDYWGQGTIVTVSS
VL: QLALTQSSSASFSLGASAKLTCTLSSQHRTYTIEWYQQQSLKPPKYVMEVKKDGSHSTGHGIPDRFSGSSSGADRYLSISNIQPEDEAIYICGVGDAIKGQSVFVFGGGTKVTVL
notes: Murine N-terminal anti-hPG monoclonal antibody, immunogen N2; also called hybridoma 1B3B4F11
B5: murine anti-hPG MAb16 (antibody, V domains shown)
VH: QVQLQQSGAELVKPGASVKLSCKASGYTFTSYYMYWVKQRPGQGLEWIGEINPSNGGTNFNEKFKSKATLTVDKSSSTAYMQLSSLTSEDSAVYYCTRGGYYPFDYWGQGTTLTVSS
VL: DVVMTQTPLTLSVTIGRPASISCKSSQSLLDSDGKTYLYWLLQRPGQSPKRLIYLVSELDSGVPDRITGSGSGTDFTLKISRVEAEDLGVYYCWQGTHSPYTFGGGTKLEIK
notes: Murine N-terminal anti-hPG monoclonal antibody, immunogen N2; also called hybridoma 1E9D9B6
B6: murine anti-hPG MAb4 (antibody, V domains shown)
VH: QVQLQQSGAELMKPGASVKISCKATGYTFSSSWIEWLKQRPGHGLEWIGEFLPGSGSTDYNEKFKGKATFTADTSSDTAYMLLSSLTSEDSAVYYCATDGNYDWFAYWGQGTLVTVSA
VL: DLVMTQTPLSLPVSLGDQASISCRSSQSLVHSSGVTYLHWYLQKPGQSPKLLIYKVSNRFSGVPDRFSGSGSGTDFTLKISRVEAEDLGVYFCSQSTHVPPTFGSGTKLEIK
notes: Murine N-terminal anti-hPG monoclonal antibody, immunogen N2; also called hybridoma 20D2C3G2

What follows are binders tested against T1, mature human progastrin (assay: measured KD; method not named at the table (Example 4 describes Proteon SPR, antibody captured by anti-mouse IgG, hPG injected)).

Binder | Kd
B1 | 0.1 nM and 0.108 nM
B2 | 6.4 nM
B3 | 0.6 nM and 0.612 nM
B4 | 0.7 nM and 0.779 nM
B5 | 0.2 nM and 0.278 nM
B6 | 3.5 nM
